Measurements: patent publication US20250289861A1 (IMMUNOFORGE, published 2025)

Target: T1, Human FcRn-GST protein (human, UniProt P55899 24-297; P61769 21-119, limits assumed)
T1 construct: not shown: GST tag
Experiment: ELISA at pH 6.0: fusion protein coated on the plate, Human FcRn-GST titrated (x axis, ug/ml), anti-GST Ab-HRP, A450
Method: To investigate the binding affinity of the PF1802_M020, M021, and M022 substances, obtained by introducing three types of blood half-life-increasing Fc to the PF1802-M008 candidate substance, to human FcRn, ELISA was performed, and to investigate the difference in binding affinity depending on pH, two situations at pH 6.0 and pH 7.4 were prepared, respectively. Specifically, each of the PF1802_M020, M021, and M022 substances was coated at 4 μg/mL on a 96 well immunoplate, and reacted with PBS (pH 6.0 and 7.4) containing 4% skim milk at room temperature for 1 hour to block non-specific binding. Thereafter, the Human FcRn-GST protein was diluted 4-fold from a maximum concentration of 5 μg/mL to 0.0003 μg/mL using PBS (pH 6.0, 7.4) containing 1% skim milk, and then dispensed into each well, followed by incubation at room temperature for 1 hour.

T1 sequence (P55899 24-297 limits assumed, chain 1 of 2): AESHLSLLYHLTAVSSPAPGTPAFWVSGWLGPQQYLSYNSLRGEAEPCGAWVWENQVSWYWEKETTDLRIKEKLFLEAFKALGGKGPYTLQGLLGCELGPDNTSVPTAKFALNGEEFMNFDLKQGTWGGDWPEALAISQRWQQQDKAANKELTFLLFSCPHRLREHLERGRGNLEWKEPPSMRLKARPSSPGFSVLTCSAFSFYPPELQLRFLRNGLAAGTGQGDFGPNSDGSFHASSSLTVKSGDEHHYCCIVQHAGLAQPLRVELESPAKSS
T1 sequence (P61769 21-119 limits assumed, chain 2 of 2): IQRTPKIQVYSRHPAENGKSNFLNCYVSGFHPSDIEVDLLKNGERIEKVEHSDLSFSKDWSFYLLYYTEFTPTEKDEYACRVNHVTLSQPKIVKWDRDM

Binder	EC50 (read off the curve) [µg/mL]
PF1802_M021 (GLP1-Fc-mut.IGF1) (Fc fusion, M008 with a half-life-increasing Fc: N297A, L309E, Q311M, M428L) HGEGTFTSDVSSYLEEQAAKEFIAWLVKGGGGSAPAPGGGGSDKTHTCPPCPAPELLGGPSVFLFPPKPKDTLMISRTPEVTCVVVDVSHEDPEVKFNWYVDGVEVHNAKTKPREEQYASTYRVVSVLTVEHMDWLNGKEYKCKVSNKALPAPIEKTISKAKGQPREPQVYTLPPSREEMTKNQVSLTCLVKGFYPSDIAVEWESNGQPENNYKTTPPVLDSDGSFFLYSKLTVDKSRWQQGNVFSCSVLHEALHNHYTQKSLSLSPGKGGGGSGGGGSGGGGSGGGGSGAHSGPATLCGAELVDALQFVCGDRGFYFNKPTGYGSSSRRAPQTGIVDECCARSCDLRRLEMYCAPLKPTKST	~0.03
PF1802_M022 (GLP1-Fc-mut.IGF1) (Fc fusion, M008 with a half-life-increasing Fc: N297A, L309E, Q311W, M428L) HGEGTFTSDVSSYLEEQAAKEFIAWLVKGGGGSAPAPGGGGSDKTHTCPPCPAPELLGGPSVFLFPPKPKDTLMISRTPEVTCVVVDVSHEDPEVKFNWYVDGVEVHNAKTKPREEQYASTYRVVSVLTVEHWDWLNGKEYKCKVSNKALPAPIEKTISKAKGQPREPQVYTLPPSREEMTKNQVSLTCLVKGFYPSDIAVEWESNGQPENNYKTTPPVLDSDGSFFLYSKLTVDKSRWQQGNVFSCSVLHEALHNHYTQKSLSLSPGKGGGGSGGGGSGGGGSGGGGSGAHSGPATLCGAELVDALQFVCGDRGFYFNKPTGYGSSSRRAPQTGIVDECCARSCDLRRLEMYCAPLKPTKST	~0.03
PF1802_M020 (GLP1-Fc-mut.IGF1) (Fc fusion, M008 with a half-life-increasing Fc: N297A, L309Y, Q311M, M428L) HGEGTFTSDVSSYLEEQAAKEFIAWLVKGGGGSAPAPGGGGSDKTHTCPPCPAPELLGGPSVFLFPPKPKDTLMISRTPEVTCVVVDVSHEDPEVKFNWYVDGVEVHNAKTKPREEQYASTYRVVSVLTVYHMDWLNGKEYKCKVSNKALPAPIEKTISKAKGQPREPQVYTLPPSREEMTKNQVSLTCLVKGFYPSDIAVEWESNGQPENNYKTTPPVLDSDGSFFLYSKLTVDKSRWQQGNVFSCSVLHEALHNHYTQKSLSLSPGKGGGGSGGGGSGGGGSGGGGSGAHSGPATLCGAELVDALQFVCGDRGFYFNKPTGYGSSSRRAPQTGIVDECCARSCDLRRLEMYCAPLKPTKST	~0.04
